For seven molecules, Kd results are on record in paper PMC8053085, “Di-phosphorylated BAF shows altered structural dynamics and binding to DNA, but interacts with its nuclear envelope partners” (Nucleic Acids Research, 2021).

Sequences and labels used below:
T1: Barrier-to-autointegration factor (BAF construct with the four cysteines replaced by alanines) (human, UniProt O75531 1-89, glycine as residue 1 instead of the native methionine | C67 mutated into …)
T1 sequence: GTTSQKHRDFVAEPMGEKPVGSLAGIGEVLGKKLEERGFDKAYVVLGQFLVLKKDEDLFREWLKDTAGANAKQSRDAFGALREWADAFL

T2: Di-phosphorylated BAF (BAF phosphorylated by VRK1 on Thr3 and Ser4) (human, UniProt O75531 1-89, glycine as residue 1 instead of the native methionine | C67 mutated into …, phosphothreonine at 3, phosphoserine at 4)
T2 sequence: T1 sequence

T3: IgFold domain of human lamin A/C from amino acid 411 to amino acid 566 (human, UniProt P02545 411-566)
T3 construct: human lamin A/C, residues 411-566 including the IgFold domain; Cloned into a pGEX vector; also called LamIgF; lamin A/C Igfold domain; source: E. coli BL21 DE3 Star, purified (glutathione beads, thrombin cleavage, gel filtration); 15N labelled for NMR
T3 sequence (looked up): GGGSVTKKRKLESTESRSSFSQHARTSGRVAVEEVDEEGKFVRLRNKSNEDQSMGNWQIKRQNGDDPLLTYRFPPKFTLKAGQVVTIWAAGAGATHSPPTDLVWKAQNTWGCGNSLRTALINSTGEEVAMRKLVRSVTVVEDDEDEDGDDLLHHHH

B1: LEM domain of human emerin from amino acid 1 to amino acid 46 (domain or fragment, UniProt P50402 1-46, looked up)
chain: MDNYADLSDTELTTLLRRYNIPHGPVVGSTRRLYEKKIFEYETQRR
notes: human emerin, residues 1-46 (LEM domain); also called emerin LEM domain; LEM fragment
B2: Barrier-to-autointegration factor (BAF construct with the four cysteines replaced by alanines) (natural protein, human, UniProt O75531 1-89, looked up)
chain: T1 sequence
notes: human barrier-to-autointegration factor (BANF1), an 89-aa protein; residue 1 is a glycine left by the TEV site instead of the native methionine; all four cysteines mutated into alanine; also called BAF WT; non-phosphorylated BAF; not shown: His tag, N-terminal, cleaved
B3: Di-phosphorylated BAF (BAF phosphorylated by VRK1 on Thr3 and Ser4) (natural protein, human, UniProt O75531 1-89, looked up)
chain: T1 sequence
modifications: phosphothreonine at 3, phosphoserine at 4
notes: human barrier-to-autointegration factor (BANF1), an 89-aa protein; residue 1 is a glycine left by the TEV site instead of the native methionine; all four cysteines mutated into alanine; phosphorylated on Thr3 and Ser4; Same construct as m1, then phosphorylated; also called pBAF; not shown: His tag, N-terminal, cleaved

“And” between values parts separate entries of the source, which are not always exact repeats. Identical values can stand only once.

Series [1] concerns BAF A12T (human). Nature of the series: ITC. Particulars: ITC: 50 mM Tris-HCl pH 8.0, 150 mM NaCl, 15 C, 20 uM BAF in cell, DNA 200 uM (7/21 nt) or 100 uM (48 nt) in syringe; fluorescence assay buffer not given in the ….
The test system of series [2] is BAF WT (Cys-less construct) (human). Nature of the series: ITC. Particulars: ITC: 50 mM Tris-HCl pH 8.0, 150 mM NaCl, 15 C, 20 uM BAF in cell, DNA 200 uM (7/21 nt) or 100 uM (48 nt) in syringe; fluorescence assay buffer not given in the ….
Series [3] has as its system BAF A12T (human). Description: fluorescence, dye-labelled coated dsDNA. Particulars: mean of 4; ITC: 50 mM Tris-HCl pH 8.0, 150 mM NaCl, 15 C, 20 uM BAF in cell, DNA 200 uM (7/21 nt) or 100 uM (48 nt) in syringe; fluorescence assay buffer not given in the ….
The subject of another series is BAF S4E (human). Description: fluorescence, dye-labelled coated dsDNA. Particulars: mean of 2; ITC: 50 mM Tris-HCl pH 8.0, 150 mM NaCl, 15 C, 20 uM BAF in cell, DNA 200 uM (7/21 nt) or 100 uM (48 nt) in syringe; fluorescence assay buffer not given in the ….
In series [4] the test system is BAF WT (Cys-less construct) (human). Nature of the series: fluorescence, dye-labelled coated dsDNA. Particulars: mean of 5; ITC: 50 mM Tris-HCl pH 8.0, 150 mM NaCl, 15 C, 20 uM BAF in cell, DNA 200 uM (7/21 nt) or 100 uM (48 nt) in syringe; fluorescence assay buffer not given in the ….
Series [5] relates to pBAF (pThr3, pSer4) (human). Nature of the series: fluorescence, dye-labelled coated dsDNA. Particulars: mean of 2; ITC: 50 mM Tris-HCl pH 8.0, 150 mM NaCl, 15 C, 20 uM BAF in cell, DNA 200 uM (7/21 nt) or 100 uM (48 nt) in syringe; fluorescence assay buffer not given in the ….
Series [6] has as its target T1, Barrier-to-autointegration factor (BAF …). Nature of the series: ITC.
Series [7] concerns the target T2, Di-phosphorylated BAF (BAF …). Nature of the series: ITC; phosphorylated BAF (pThr3, pSer4).
Series [8] has as its target B2. Description: ITC; VP-ITC, 15°C; BAF or pBAF dimers at 20 μM in the cell titrated with LamIgF at 100 μM or LEM at 150 μM in the syringe; 50 mM HEPES pH 7.4, 150 mM NaCl; in duplicate. To be noted: both partners purified.
For series [9], the target named is B3. The description is as above. To be noted: both partners purified.
The target of series [10] is T3, IgFold domain of human lamin A/C from …. Described as above. To be noted: both partners purified.

On to 7 nt dsDNA, for which the Kd with BAF A12T (human) [1] is 1700 nM and 920 nM; in series [2], 1000 nM and 2100 nM.
With 21 nt dsDNA, the Kd in the series on BAF A12T (human) [1] is 300 nM and 210 nM; in series [2] it was 170 nM and 110 nM.
For 48 nt dsDNA (ITC), the Kd was 28.8 nM in the series with BAF A12T (human) [1] and 41.1 nM in series [2].
Take 48 nt dsDNA, coated: the Kd with BAF A12T (human) [3] is 2.5 nM; in the series with BAF S4E (human) it was 15000 nM; in [4], 2.54 nM; in series [5] it was 10700 nM.
With B1, the dissociation constant Kd is 1100 nM in series [6], 700 nM in series [7], roughly 1000 nM in series [8] and roughly 1000 nM in [9].
In turn, B2 gave a Kd in [10] of 4500 ± 500 nM.
For the molecule B3, in series [10], the Kd was found to be 4900 ± 800 nM.

In general, Kd refers to the constant that tells how readily two partners part at equilibrium. A higher Kd goes with weaker binding.
